# Experimental data: patent US20110077204A1, “Agent for Targeted Drug Delivery To Cerebral Neurons” (Kagoshima University, priority 2006, published 2011)
# How the values were obtained:
# [1] = tested on: raphe nuclei; settings: in vivo; cited from earlier work
# [2] = tested on: brain neurons; settings: rat, in vivo
# [3] = tested on: brain neurons; settings: rat, in vivo; remark: listed apart in the source
# [4] = tested on: brain parenchyma; settings: injected directly into the cerebrospinal fluid; cited from earlier work
molecule,measurement,setting,value
N=C(N)c1ccc(/C=C/c2ccc(C(=N)N)cc2O)cc1 [fluorogold],Appearance of label in raphe nuclei,[1],the label appeared in the raphe nuclei
cholera toxin,Appearance of label in raphe nuclei,[1],the label appeared in the raphe nuclei
cholera toxin B-subunit [CTB],Non-specific infiltration through brain surface or ventricle surface,[2],does not infiltrate indiscriminately through the brain surface or the ventricle surface
same,Uptake by cerebellar Purkinje cells,[2],accumulated in the neurons of the raphe nuclei and Purkinje cells
same,"Uptake by other cell populations (cerebral neocortex, cerebral paleocortex, hypothalamus, thalamus, brainstem)",[2],incorporated
same,Uptake by raphe nuclei neurons,[2],accumulated in the neurons of the raphe nuclei and Purkinje cells
horseradish peroxidase [HRP],Detectable level of uptake of HRP label by neurons,[3],not confirmed
"glial cell line-derived neurotrophic factor (protein, UniProt P39905 78-211, looked up, neurotrophic factor, literature report) Glial cell line-derived …: SPDKQMAVLPRRERNRQAAAANPENSRGKGRRGQRGKNRGCVLTAIHLNVTDLGLGYETKEELIFRYCSGSCDAAETTYDKILKNLSRNRRLVSDKVGQACCRPIAFDDDLSFLDDNLVYHILRKHSAKRCGCI",Effect on dopaminergic condition,[4],can improve the dopaminergic condition
same,Uptake by brain parenchyma,[4],incorporated into brain parenchyma
